Data as given in patent US20170129954A1 (PROTHENA BIOSCIENCES, published 2017).

Biological target: T1, human MCAM Y318A single mutant displayed on mammalian cells (human, UniProt P43121 24-646)
T1 construct: also called Y318A mutant
T1 chain: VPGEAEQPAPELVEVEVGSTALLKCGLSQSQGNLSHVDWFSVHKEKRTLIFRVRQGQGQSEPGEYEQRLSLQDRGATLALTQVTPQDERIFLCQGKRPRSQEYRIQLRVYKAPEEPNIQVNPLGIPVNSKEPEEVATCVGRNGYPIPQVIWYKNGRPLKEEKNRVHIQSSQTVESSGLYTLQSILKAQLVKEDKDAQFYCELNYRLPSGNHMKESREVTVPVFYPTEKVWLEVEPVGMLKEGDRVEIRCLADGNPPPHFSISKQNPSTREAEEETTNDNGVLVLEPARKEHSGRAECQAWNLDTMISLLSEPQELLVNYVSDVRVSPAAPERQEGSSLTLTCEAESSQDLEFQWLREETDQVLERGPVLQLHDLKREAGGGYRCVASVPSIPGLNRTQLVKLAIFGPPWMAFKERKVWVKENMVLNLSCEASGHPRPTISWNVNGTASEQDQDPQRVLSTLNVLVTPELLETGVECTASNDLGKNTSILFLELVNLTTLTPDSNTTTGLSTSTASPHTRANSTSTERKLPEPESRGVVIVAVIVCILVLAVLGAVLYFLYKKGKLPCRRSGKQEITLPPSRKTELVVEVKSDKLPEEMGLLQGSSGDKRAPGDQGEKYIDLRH
Experiment: FACS on mammalian cells displaying the mutant
Text: Twenty point mutants based on the structure information and shotgun mutagenesis information were designed and generated.

binding result: no binding
B1: mouse anti-human MCAM monoclonal antibody clone 1749.1.3 (antibody, V domains shown)
VH: DVKLVESGGDLVKPGGSLKLSCAASGFTFSSYIMSWVRQTPEKRLEWVATISSGGSSTYYPDSVKGRFTISRDNAKNTLYLQMSSLKSEDTAMYYCTRDDDYDVKVFAYWGQGTLVTVSA
VL: DIVMSQSPSSLAVSAGEKVTMNCKSSRSLLNSRIRKNYLAWYQQKPGQSPKLLIYWASTRESGVPDRFTGSGSGTDFTLTISSVQAEDLAVYYCKQSYNLLTFGAGTKLELK
notes: Mouse hybridoma monoclonal antibody; also called m1749
